Laboratory results reported in paper PMC7102939, “N 1-Methylpseudouridine substitution enhances the performance of synthetic mRNA switches in cells”.

B1: 2x MS2 aptamer, native U (structured_RNA)
RNA: GGGAGCAGGUGAGGAUCACCCAUCUGCCACGAGCGAGGUGAGGAUCACCCAUCUCGCUCGUGUUCCC
B2: 2x MS2 aptamer, m1Ψ (structured_RNA)
RNA: B1 RNA
modifications: all U replaced by N1-methylpseudouridine

Key:
[1] = biological target: T1, MS2CP (MS2 coat protein) (bacteriophage MS2, UniProt P03612 2-130); experiment: EMSA; 6 mM Mg2+, 2 mM spermidine; EMSA, 1 uM RNA, 4 C 30 min, 12% native PAGE at 4 C; 1x from 5x buffer: U1A 20 mM HEPES pH 7.5, 80 mM KCl, 20 mM NaCl, 2 mM DTT; MS2CP 40 mM HEPES pH 7.5, 10 mM; details: protein: recombinant; tags: His; chain copies: 2; two hairpins
[2] = biological target: T1, MS2CP (MS2 coat protein); experiment: EMSA; 6 mM Mg2+, 2 mM spermidine; affinity similar to native U; EMSA, 1 uM RNA, 4 C 30 min, 12% native PAGE at 4 C; 1x from 5x buffer: U1A 20 mM HEPES pH 7.5, 80 mM KCl, 20 mM NaCl, 2 mM DTT; MS2CP 40 mM HEPES pH 7.5, 10 mM; details: protein: recombinant; tags: His; chain copies: 2; two hairpins

T1 sequence (P03612 2-130): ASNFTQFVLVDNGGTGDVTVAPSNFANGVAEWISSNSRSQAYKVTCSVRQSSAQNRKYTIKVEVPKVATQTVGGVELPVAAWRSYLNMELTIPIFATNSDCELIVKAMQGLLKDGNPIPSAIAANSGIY

Binder | binding result [1] | binding result [2]
B1 | binds | 
B2 |  | binds
